Here are results for 5 compounds from article PMC9966725, “Preclinical Evaluation of a Lead Specific Chelator (PSC) Conjugated to Radiopeptides for ^203Pb and ^212Pb-Based Theranostics” (Pharmaceutics, 2023).

The nature of one data set: in vivo. Details: species or system mice. Particulars: female, athymic nude, mouse, total radioactivity; for tissue uptake at 1 h: iv, 74 kBq. How it is done: (§1) Biodistribution of [^212Pb]Pb-PSC-PEG-T and progeny ^212Bi^3+ was determined in two animal models, including female naïve CD-1Elite mice and athymic mice bearing AR42J tumor xenografts. SSTR2-positve AR42J cells were cultured in 10% Minimum Essential Medium (MEM) supplemented with 10% fetal bovine serum (FBS), 100 units mL^−1 penicillin, and 100 units mL^−1 streptomycin 37 °C in a humidified atmosphere (5% CO2). All animal studies were performed in accordance with the Guide for the Care and Use of Laboratory Animals, according to protocols approved by the University of Iowa Animal Care and Use Committee (protocol#1122453 approved on 16 February 2022). Xenograft of AR42J tumor was developed by subcutaneous (s.c.) injection of 1 × 10^6 cells at the left shoulder of female athymic nude mice. [^212Pb]Pb-PSC-PEG-T was radiolabeled and purified as described above, and kept at room temperature away from light for 3 h before injection, to allow progeny ^212Bi to approach equilibrium before injection. Upon assay, 74 kBq [^212Pb]Pb-PSC-PEG-T (peptide mass = 5–10 pmole) were injected via tail vein (n = 2–3). Animals were euthanized at designated time points (1, 5, 24 h for naïve CD-1 mice; 1, 4 h for AR42J-bearing mice). Organs of interest and tumors were collected, rinsed, and weighed. Radioactivity of ^212Pb and ^212Bi in each sample was measured on an automated gamma counter by 238 keV and 583 keV gamma peaks, respectively. ^212Bi was purified from the generator eluate on RE2 resin and collected in pH = 6 sodium acetate as described above. Biodistribution of free ^212Bi in normal organs was determined at 2 h post injection of 74 kBq ^212Bi in naïve female CD-1 Elite mice (n = 3). Radioactivity in samples was decay corrected and data were expressed as percent injected dose per gram of tissue (%ID/g). SPECT imaging of [^203Pb]Pb-PSC-PEG-T and [^212Pb]Pb-PSC-PEG-T in female athymic nude mice bearing AR42J xenograft (n = 2) was conducted on Bioemtech Gamma-Eye Imaging system (Bioemtech, Athens, Greece) with 30–500 keV dynamic range and 1.9 mm spatial resolution. Whole body 2D-SPECT imaging of [^203Pb]Pb-PSC-PEG-T and [^212Pb]Pb-PSC-PEG-T were collected at 3 h and 24 h (n = 2) post injection of 1.8 MBq [^203Pb]Pb-PSC-PEG-T (52 MBq nmole^−1) and 3.7 MBq [^212Pb]Pb-PSC-PEG-T (20 MBq nmole^−1). SPECT images were generated by acquiring ten 30 s projections. Imaging data were reconstructed and normalized to percent of injected dose (%ID) in tumor and kidneys based on region of interest (ROI) analysis on VISUAL-Eyes software (Bioemtech, Athens, Greece). Animals were euthanized after conclusion of the study at 24 h post injection. Tumor xenografts and organs of interest were collected and weighed. Radioactivity of ^203Pb or ^212Pb was determined on automated gamma counter and normalized to %ID/g.

The nature of data set [1]: Radiochemical stability of radiometal complex in saline, radio-iTLC. The format is physicochemical. Particulars: for radiochemical purity of progeny: progeny of 37 MBq mL^-1 [^212Pb]Pb-PSC-PEG-T, 24 h in saline at room temperature; for radiochemical purity: single species, 7.4 MBq mL^-1, n = 2. How it is done:
(§2) Using [^203Pb]Pb-PSC-PEG-T surrogate, radiochemical stability of [^203Pb]Pb-PSC-PEG-T in saline was monitored for 72 h. Similarly, single species of [^212Bi]Bi-PSC-PEG-T in saline were also monitored for 5 h (five half-lives of ^212Bi). [^203Pb]Pb-PSC-PEG-T and [^212Bi]Bi-PSC-PEG-T were radiolabeled and purified on Sep-Pak® C18 SPE columns as previously described. Next, 7.4 MBq mL^−1 of purified [^203Pb]Pb-PSC-PEG-T and [^212Bi]Bi-PSC-PEG-T were stored in saline supplemented with 5% EtOH and 1 mg mL^−1 sodium ascorbate for 72 h and 5 h, respectively, followed by analysis of radiochemical purity by radio-iTLC method. Then, radiochemical stability of [^212Pb]Pb-PSC-PEG-T and progeny [^212Bi]Bi-PSC-PEG-T were determined by radio-iTLC after storage of 37 MBq mL^−1 radiolabeled [^212Pb]Pb-PSC-PEG-T in saline for 24 h, and further confirmed by radio-HPLC analysis. In human serum, radiochemical stability of [^212Pb]Pb-PSC-PEG-T and progeny [^212Bi]Bi-PSC-PEG-T were determined after incubation of 3.7 MBq [^212Pb]Pb-PSC-PEG-T in 1 mL human serum at 37 °C for 24 h. In addition, metabolic stability of Pb-PSC-PEG-T radiopeptide in serum was determined by radio-HPLC after incubating [^203Pb]Pb-PSC-PEG-T surrogate in human serum for 55 h (five half-lives of ^212Pb). Following the incubation, serum protein was precipitated in ice-cold methanol (1:1.5 v/v) for 10 min, followed by centrifugation at 10,000× g for 10 min. The supernatant was collected and analyzed on radio-HPLC.
In radio-iTLC analysis, 0.1 M NaOAc with 1 mM DTPA was used as mobile phase for ^203Pb, ^212Pb, ^212Bi. Citric acid (0.1 M) was used as mobile phase for ^68Ga. Upon radio-iTLC analysis, 2 µL aliquot sample was spotted on the radio-iTLC strips (2 × 10 cm) and developed in the mobile phase. Radioactivity of ^203Pb and ^212Pb was measured on NaI(Tl) gamma spectroscope using 279 keV and 238 keV gamma peaks, respectively. Radioactivity of ^212Bi on radio-iTLC was measured on the Ludlum Model 3030 α-particle counter. Radio-HPLC analysis was conducted on Agilent 1260 (Agilent, Santa Clara, CA, USA). Binary mobile phases were applied to run 5–60% phase B (acetonitrile) over phase A (0.1% TFA in water) over 10 min on ZORBAX RR Eclipse XDB-C18 column (4.6 × 150 mm, 5 µm). Radioactivity of ^203Pb was measured on flow-through 105S-1 single channel radiation detector (Corroll & Ramsey, Fort Collins, CO, USA). To measure ^212Pb and ^212Bi activity on radio-HPLC, eluate was collected every 10 s on a HPLC fraction collector. Radioactivity of ^212Pb and ^212Bi in each collected eluate was measured on Cobra II automated gamma counter using 238 keV and 583 keV gamma peaks immediately after collection.

A short description of data set [2]: Stability of radiopeptide in saline, radio-HPLC. The format is physicochemical. Particulars: 24 h storage in saline, C18, fractions counted on gamma counter. How it is done:
as §2, with “Following the incubation, serum protein was precipitated in ice-cold methanol (1:1.5 v/v) for 10 min, followed by centrifugation at 10,000× g for 10 min.” left out, “radio-HPLC. […]” for “radio-HPLC.”

A short description of data set [3]: In vivo biodistribution in naïve tumor-free CD-1 Elite mice. The settings on record: female, mouse, iv, 74 kBq. How it is done: as §1
The test system of data set [4] is SSTR2-positive AR42J xenografts. Kind of data set: in vivo. The arrangement: species or system mice. Particulars: female, athymic nude, mouse, iv, 74 kBq, 1 h. The protocol: as §1
Where [5] appears, read: total radioactivity, accumulation in kidneys.
Where [6] appears, read: total radioactivity, accumulation in pancreas.

With `C[C@@H](O)[C@@H]1NC(=O)[C@H](CCCCN)NC(=O)[C@@H](Cc2c[nH]c3ccccc23)NC(=O)[C@H](Cc2ccc(O)cc2)NC(=O)[C@@H](NC(=O)[C@@H](Cc2ccccc2)NC(=O)CCOCCOCCNC(=O)CN2CCN(CC(=O)O)CCN(CC(N)=O)CCN(CC(=O)O)CC2)CSSC[C@@H](C(=O)N[C@H](CO)[C@@H](C)O)NC1=O` [[^203Pb]Pb-PSC-PEG-T, metal not drawn], the tissue uptake – broadly, the percentage of the injected dose found per gram of tissue – at 24 h in the data set “in vivo” (activity in lungs) was found to be 0.6 %ID/g. In addition, in “in vivo” (kidneys uptake (SPECT ROI)), the tissue uptake dose at 3 h stood at 8.3 %ID and the tissue uptake dose at 24 h was 0.8 %ID. In addition, in “in vivo” (tumor uptake (SPECT ROI)), the tissue uptake dose at 3 h was 1.8 %ID and the tissue uptake dose at 24 h came to 1.5 %ID.

`C[C@@H](O)[C@@H]1NC(=O)[C@H](CCCCN)NC(=O)[C@@H](Cc2c[nH]c3ccccc23)NC(=O)[C@H](Cc2ccc(O)cc2)NC(=O)[C@@H](NC(=O)[C@@H](Cc2ccccc2)NC(=O)CCOCCOCCNC(=O)CN2CCN(CC(=O)O)CCN(CC(N)=O)CCN(CC(=O)O)CC2)CSSC[C@@H](C(=O)N[C@H](CO)[C@@H](C)O)NC1=O` [[^203Pb]Pb-PSC-PEG-T] [metal not drawn]: the “free ^203Pb” value in data set [1] (72 h storage in saline with 5% EtOH and 1 mg mL^-1 sodium ascorbate, 7.4 MBq mL^-1, 1 and 5 µM precursor, n = 2) was “less than 1%”. The “^203Pb remained in PSC-PEG-T” value in data set [1] (72 h storage in saline with 5% EtOH and 1 mg mL^-1 sodium ascorbate, 7.4 MBq mL^-1, regardless of PSC-PEG-T precursor concentration (1 and 5 µM), n = 2) is listed as “More than 99%”.

As to `C[C@@H](O)[C@@H]1NC(=O)[C@H](CCCCN)NC(=O)[C@@H](Cc2c[nH]c3ccccc23)NC(=O)[C@H](Cc2ccc(O)cc2)NC(=O)[C@@H](NC(=O)[C@@H](Cc2ccccc2)NC(=O)CCOCCOCCNC(=O)CN2CCN(CC(=O)O)CCN(CC(N)=O)CCN(CC(=O)O)CC2)CSSC[C@@H](C(=O)N[C@H](CO)[C@@H](C)O)NC1=O` [[^212Bi]Bi-PSC-PEG-T, metal not drawn], the figures for the tissue uptake at 1 h in “in vivo” (accumulation in bones) and in “in vivo” (accumulation in kidneys) were 2.5 %ID/g and 38.1 %ID/g, respectively.

As to `C[C@@H](O)[C@@H]1NC(=O)[C@H](CCCCN)NC(=O)[C@@H](Cc2c[nH]c3ccccc23)NC(=O)[C@H](Cc2ccc(O)cc2)NC(=O)[C@@H](NC(=O)[C@@H](Cc2ccccc2)NC(=O)CCOCCOCCNC(=O)CN2CCN(CC(=O)O)CCN(CC(N)=O)CCN(CC(=O)O)CC2)CSSC[C@@H](C(=O)N[C@H](CO)[C@@H](C)O)NC1=O` [[^212Bi]Bi-PSC-PEG-T] [metal not drawn], the “radiochemical purity of progeny” value in data set [1] (1 µM PSC-PEG-T) is given as 91.8%; in data set [1] (3 µM PSC-PEG-T), 94.8%; in data set [1] (5 µM PSC-PEG-T), 97.1%. Further, the radiochemical purity is on record as 94.1% in data set [1] (1 h incubation in saline (5% EtOH, 1 mg mL^-1 sodium ascorbate), 1 µM PSC-PEG-T precursor); 96.1% in data set [1] (2 h incubation in saline (5% EtOH, 1 mg mL^-1 sodium ascorbate), 1 µM PSC-PEG-T precursor); 92.4% in data set [1] (3 h incubation in saline (5% EtOH, 1 mg mL^-1 sodium ascorbate), 1 µM PSC-PEG-T precursor); 92.3% in data set [1] (5 h incubation in saline (5% EtOH, 1 mg mL^-1 sodium ascorbate), 1 µM PSC-PEG-T precursor); over 98% in data set [1] (5 h incubation in saline (5% EtOH, 1 mg mL^-1 sodium ascorbate), 5 µM PSC-PEG-T precursor). Further, the “radiochemical purity (radiometal remained incorporated as radiopeptide)” value in data set [2] is given as over 95%. Also, the accumulation in kidneys in data set [3] (1 h) stood at 45.9 ± 3.7 %ID/g; in data set [3] (5 h), 29.8 %ID/g. Moreover, the accumulation in pancreas in data set [3] (1 h) stood at 7.3 %ID/g; in data set [3] (5 h), 3.5 %ID/g. In addition, in data set [3] (1 h), the “activity remained in blood” value is reported as “less than 0.2 %ID/g”. The “residual activity in kidneys” value in data set [3] (24 h) came out at 3.1 ± 1.4 %ID/g. The “accumulation in adrenal glands” value in data set [4] is 8.1 %ID/g. This compound yielded an accumulation in liver in data set [4] of 2.1 %ID/g. This compound also registered an accumulation in spleen in data set [4] of 1.4 %ID/g.

For `C[C@@H](O)[C@@H]1NC(=O)[C@H](CCCCN)NC(=O)[C@@H](Cc2c[nH]c3ccccc23)NC(=O)[C@H](Cc2ccc(O)cc2)NC(=O)[C@@H](NC(=O)[C@@H](Cc2ccccc2)NC(=O)CCOCCOCCNC(=O)CN2CCN(CC(=O)O)CCN(CC(N)=O)CCN(CC(=O)O)CC2)CSSC[C@@H](C(=O)N[C@H](CO)[C@@H](C)O)NC1=O` [[^212Pb]Pb-PSC-PEG-T, metal not drawn], the tissue uptake at 1 h was 47.1 ± 7.9 %ID/g in data set [3] (setting [5]); 5.2 %ID/g in data set [3] (setting [6]); under 0.2 %ID/g in data set [3] (total radioactivity, activity remained in blood). The results for the tissue uptake at 5 h in data set [3] (setting [5]) and in data set [3] (setting [6]) were 26.6 %ID/g and 2 %ID/g, respectively. Further, the tissue uptake at 24 h in data set [3] (total radioactivity, residual activity in kidneys) amounted to 2.7 ± 1.2 %ID/g.
